Source: US20230126400A1 (Alector, published 2023)
Changes are numbered by the printed parent chain. Values belong to the binder of their own block, whether it stands above or below them.

Legend:
[1] = molecular target: T1, human MS4A4A ECL1 peptide (amino acid residues 86-98) (human); experiment: peptide ELISA
T1 construct: synthetic peptide
T1 peptide: CMASNTYGSNPIS
Method: (§1) Briefly, 96-well polystyrene plates were coated with 2 or 10 m/ml of synthetic free or BSA-conjugated peptides in coating buffer (0.05M carbonate buffer, pH9.6, Millipore Sigma Cat#C3041) overnight at 4° C. Coated plates were then blocked with ELISA diluent (PBS+0.5% BSA+0.05% Tween20) for 1-hour, washed 3×300 μL in PBST (PBS+0.05% Tween20, Thermo Cat#28352), and then the antibodies were added to the plate (50 μl/well). After 30 mins incubation (room temperature, with shaking), the plates were washed 3×300 μL in PBST. […] After a final set of washes (3×300 μL in PBST), 50 μL of TMB substrate (BioFx Cat#TMBW-1000-01) was added and the reaction was then quenched after 5-10 mins with 50 μL of stop solution (BioFx Cat#BSTP-1000-01). The quenched reaction wells were detected for absorbance at 650nm with a BioTek Synergy Microplate Reader using GENS 2.04 software.

[2] = molecular target: T2, human MS4A4A ECL2 peptide (amino acid residues 159-179), free (human); experiment: peptide ELISA, supernatant
T2 construct: synthetic peptide; also called huMS4A4A-ELC2 free-peptide
T2 peptide: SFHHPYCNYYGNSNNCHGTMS

human MS4A4A [3] = molecular target: T3, human MS4A4A (human, UniProt Q96JQ5 1-239); experiment: FACS, K562 cells, supernatant
Method: (§2) Positive clones identified in Example 22 above were expanded and then rescreened for specificity against U937, K562, and/or 300.19 cells stably overexpressing human MS4A4A or cyno MS4A4A and parental U937, K562, and/or 300.19 cells. These experiments were performed using supernatants from hybridoma clones which had undergone further expansion after initial selection. Briefly, stably transfected cells were labeled with LIVE/DEAD Fixable Aqua Dead Cell Stain Kit (ThermoFisher Scientific Cat#L34957) on ice for 30 minutes. […] 2×10⁵ cells were aliquoted per well in 96-well U-bottom plates and incubated with 50 μl of culture supernatant on ice for 30 minutes. […] Following this secondary incubation, the cells were again washed twice with ice-cold FACS buffer and resuspended in a final volume of 200 μl of FACS buffer. Analysis was performed on a FACS Canto system (BD Biosciences), with gates drawn to exclude dead (Aqua-positive) cells.
(§3) The APC ratio was calculated for each antibody as follows. […] For cell lines overexpressing human MS4A4A (h4A) or cyno MS4A4A (cy4A), the ration was calculated by comparing the binding measured to the binding observed on the corresponding parental cell lines.

cynomolgus (cyno) MS4A4A [4] = molecular target: T4, cynomolgus (cyno) MS4A4A (cynomolgus); experiment: FACS, 300.19 cells, supernatant
T4 construct: also called cy4A; Cyno 4A
Method: as §2, §3

human MS4A4A [5] = molecular target: T3, human MS4A4A; experiment: FACS, U937 cells overexpressing human MS4A4A, 5 ug/ml
Method: (§4) Purified huIgG1 chimeric anti-MS4A4A antibodies were screened for their ability to differentially bind MS4A4A on U937 cells stably overexpressing human MS4A4A, U937 cells with human MS4A4A knocked out, and parental U937 cells. Differential binding to MS4A4A expressed on these cells was assessed by FACS analysis using 5 μg/ml of purified anti-MS4A4A chimeric antibodies, as described above.

human MS4A4A [6] = molecular target: T3, human MS4A4A; experiment: FACS, parental U937 cells (endogenous human MS4A4A, not overexpressed), 5 ug/ml
Method: as §4

[7] = molecular target: T5, human MS4A6A ECL1 peptide (amino acid residues 68-85) (human); experiment: array SPR
T5 peptide: SASFSPNFTQVTSTLLNS
Method: (§5) Binding kinetic characterization of the anti-MS4A4A antibodies to MS4A4A ECL1 and ECL2 and to MS4A6A ECL1 and ECL2 peptides was performed by Carterra (South San Francisco, Calif.) using a proprietary array Surface Plasmon Resonance (SPR) instrument (MX-96) as follows. Antibodies were captured onto a CMD500D chip (Xantec # SPMX CMD500D) using the Continous Flow Microspotter (CFM). First, the chip was activated with 100 mM MES pH 5.5, 100 μL EDC (133 mM final), 100 μL of S-NHS (33.3 mM final), for 7 minutes. […] Anti-MS4A4A hydridoma supernatant or purified anti-MS4A4A antibodies were diluted in HBS-EP+ buffer (Teknova Cat # H8022) and then printed as duplicates with a 20 minute and a 5-minute print from the same sample solution.
(§6) These were then injected on the chip for five minutes, followed by a seven-minute dissociation period at 8 uL per second in a non-regenerative kinetic series. Duplicate measurements for each anti-MS4A4A antibody were taken to ensure reproducibility. Association rates (Kon) and dissociation rates (Koff) were calculated using a single one-to-one Langmuir binding model. The equilibrium dissociation constant (KD) was calculated as the ration of Koff/Kon.

[8] = molecular target: T6, human MS4A6A ECL2 peptide (amino acid residues 138-185) (human); experiment: array SPR
T6 peptide: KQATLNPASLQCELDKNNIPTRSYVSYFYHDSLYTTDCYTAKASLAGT
Method: as §5, §6

[9] = molecular target: T7, BSA-conjugated human MS4A4A ECL2 peptide (amino acid residues 159-179) (human, conjugated to BSA (site not stated)); experiment: ELISA, supernatant
T7 construct: also called MS4A4A-ECL2 BSA conjugated peptide; BSA-MS4A4A-ELC2 peptide
T7 peptide: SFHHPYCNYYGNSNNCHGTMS
Method: as §1, with “1-10 μg/ml” for “2 or 10 m/ml”, “C3041)” for “Cat#C3041)”, “[…]).” for “μl/well).”, “TMBW-1000-01)” for “Cat#TMBW-1000-01)”, “BSTP-1000-01).” for “Cat#BSTP-1000-01).”, “650 nm” for “650nm”

human MS4A4A [10] = molecular target: T3, human MS4A4A; experiment: FACS, HEK293, supernatant
Method: (§7) Positive clones identified above were expanded and then rescreened for specificity against HEK293 cells overexpressing human MS4A4A or cyno MS4A4A and parental HEK293 cells. These experiments were performed using supernatants from hybridoma clones which had undergone further expansion after initial selection. Briefly, previously prepared, cryopreserved transiently-transfected cells were labeled with LIVE/DEAD Fixable Aqua Dead Cell Stain Kit (ThermoFisher Scientific L34957) on ice for 30 minutes. After a wash with PBS, 2×10⁵ cells were aliquoted per well in 96-well U-bottom plates and incubated with 50 μl of culture supernatant on ice for 30 minutes. […] Following this secondary incubation, the cells were again washed twice with ice-cold FACS buffer and resuspended in a final volume of 200 μl of FACS buffer. Analysis was performed on a FACS Canto system (BD Biosciences), with sort gates drawn to exclude dead (Aqua-positive) cells. Positive clones (fold change of 1.8 or greater) were carried forward for further testing.

cynomolgus (cyno) MS4A4A [11] = molecular target: T4, cynomolgus (cyno) MS4A4A; experiment: FACS, HEK293, supernatant
Method: as §7

[12] = molecular target: T1, human MS4A4A ECL1 peptide (amino acid …); experiment: ELISA, hybridoma supernatant
Method: as §1, with “1-10 μg/ml” for “2 or 10 m/ml”, “C3041)” for “Cat#C3041)”, “[…]).” for “μl/well).”, “TMBW-1000-01)” for “Cat#TMBW-1000-01)”, “BSTP-1000-01).” for “Cat#BSTP-1000-01).”, “650 nm” for “650nm”

binding result [1]: no binding
binding result [2]: no binding
B1: anti-MS4A4A antibody 4A-203 (murine) (antibody, V domains shown)
VH: DVKLVESGGGLVKLGGSLKLSCAASGFTFSSFYMSWVRQTPEKRLELVAAINSNGGSTYYPDTVKGRFTISRDNAKNTLYLQMSSLKSEDTALYYCARQNYYGSSSYWYFDVWGAGTTVTVSS
VL: EIVLTQSPALMAASPGEKVTITCSVSSSISSSNLHWYRQKSETSPKPWIYGTSNLASGVPVRFSGSGSGTSYSLTISSMEAEDAATYYCQQWSRYPLTFGAGTKLELK
notes: murine hybridoma antibody

binding result [1]: no binding
binding result [2]: no binding
B2: anti-MS4A4A antibody 4A-210 (murine) (antibody, V domains shown)
VH: DVKLVESGGGLVKPGGSLKLSCAASGFTFGTYTMSWVRQTPEKRLEWVATISSGGSYTFYPDSVKGRFTISRDNAKNTLYLQMSSLKSEDTAMYYCTRDNTTGDRGWYFDVWGAGTTVTVSS
VL: DIVLTQSPVSLAVSLGQRATISCQASESVSFAGKSLMHWFQQKPGQPPKLLIYRASNLESGVPARFSGSGSESDFTLTIDPVEEDDATMYYCMQSMEDPRTFGGGTKLEIK
notes: murine hybridoma antibody

binding result [1]: no binding
binding result [2]: no binding
fold increase in MFI (human MS4A4A [3]): > 2 fold
fold increase in MFI (cynomolgus (cyno) MS4A4A [4]): > 2 fold
B3: anti-MS4A4A antibody 4A-201 (murine) (antibody, V domains shown)
VH: QVQLRESGPGLVAPSQSLSITCTVSGFSLSSFGVTWVRQPPGKGLEWLGIIWGDGSTNYHSALISRLSISKDNSKSQVFLKLNRLQTDDTATYYCAKRDYDGREDVMGYWGQGTSVTVSS
VL: DIVMTQSQKFMSTSVGDRVSITCKATQNVRTAVAWYQQKPGQSPKPLIYLASNRHTGVPDRFTGSGSGTDFTLTITNVQSEDLADYFCLQHWSYPLTFGAGTKLEMK
notes: murine hybridoma antibody

ratio of MFI over secondary antibody alone (human MS4A4A [5]): 8.9 ratio
ratio of MFI over secondary antibody alone (human MS4A4A [6]): 1.1 ratio
B4: anti-MS4A4A antibody 4A-201, huIgG1 chimera (antibody, V domains shown)
VH: B3 VH
VL: B3 VL

binding result [1]: no binding
binding result [2]: no binding
fold increase in MFI (human MS4A4A [3]): > 2 fold
fold increase in MFI (cynomolgus (cyno) MS4A4A [4]): > 2 fold
B5: anti-MS4A4A antibody 4A-225 (antibody, V domains shown)
VH: B3 VH with R5K, S30T, T35N, V37F, Y59F, I64M, E104D
VL: B3 VL with F10I, T26S, N28T, P46A, T76S
notes: murine hybridoma antibody

binding result [1]: no binding
binding result [2]: no binding
fold increase in MFI (human MS4A4A [3]): > 2 fold
fold increase in MFI (cynomolgus (cyno) MS4A4A [4]): > 2 fold
B6: anti-MS4A4A antibody 4A-209 (murine) (antibody, V domains shown)
VH: EVKLLESGGGLVQPGGSLKLSCAASGFDFSRYWMSWVRQAPGKGLEWIGEIKSDSSTINYTPSLKDKFIISRDNAKNTLYLQMSKVRSEDTALYYCARRGFYDYDAWFAYWGQGTLVTVSS
VL: QIVLTQSPTLMSASPGEKVTMTCSASSSVTYMYWYQQKPRSSPKPWIYLTSNRASGVPTRFSGSGSGTSHSLTISYMEAEDAATYYCQQWSSNPPTFGAGTKLELR
notes: murine hybridoma antibody

fold increase in MFI (human MS4A4A [3]): > 2 fold
fold increase in MFI (cynomolgus (cyno) MS4A4A [4]): > 2 fold
B7: anti-MS4A4A antibody 4A-207 (murine) (antibody, V domains shown)
VH: EVNLEESGGGLVQPGGSMKLSCVASGFTFNNYWMNWVRQSPEKGLEWVAEIRLKSNNYATHYAESVKGRFTISRDDSKSSVYLQMNNLRPEDTAIYYCTTDPPMDYSGQGTPVTVSS
VL: QIVLTQSPAFMSASPGEKVTITCSASSSVSYMHWFQQKPGTSPKLWIYSTSNLVSGVPDRFSGSGSGTSYSLTISRMEAEYAATYYCHQRTSYPWTFGGGTKLEIK
notes: murine hybridoma antibody

binding result [7]: no binding (tested: 2000 nM)
binding result [8]: no binding (tested: 2000 nM)
binding result [9]: binds
Human 4A:parental cell ratio (human MS4A4A [10]): 20.2 ratio
Cyno 4A:parental cell ratio (cynomolgus (cyno) MS4A4A [11]): 9.63 ratio
binding result [12]: no binding
B8: anti-MS4A4A antibody 4A-2 (antibody, V domains shown)
VH: QIQLVQSGPELKKPGETVKISCKASGYTFVDYEMNWVKQAPGKGLEWLGWINTYTGEPTYADDFQGRFAFSLVTSVSTAYLQINNLKHEDMATYLCTRNYYYGNGDVMDYWGQGTSVTVSS
VL: B7 VL with F10I, M32I, V54A, D59A, Y81D, H88Q, S92G, Y93F, W95L, K102Q
notes: murine hybridoma antibody

ratio of MFI over secondary antibody alone (human MS4A4A [5]): 25.3 ratio
ratio of MFI over secondary antibody alone (human MS4A4A [6]): 1 ratio
B9: anti-MS4A4A antibody 4A-205, huIgG1 chimera (antibody, V domains shown)
VH: EVQLVESGGDLVKPGGSLKLSCAASGFTFSHYGMSWVRQTPDKRLDWVATIGRDGIHTDYRDSVKGRFTISRDNAKNTLYLQMGSLKSEDSAIFYCARHLYYGLYYSMDYWGQGTSVTVSS
VL: ENVLTQSPAIMSASPGEKVTMTCSASSSVSFMYWYQQKSSTSPKLWIYDTSKLASGVPGRFSGSGSGNSYSLTISSMEAEDVATYYCFQGSGYPLTFGSGTKLEIK
